Measurements reported in patent US20110177998A1 (COMPUGEN, published 2011).
Positions of bridges follow the written chain, without caps; N, C: chain ends. Chains are numbered I, II in the order given. No end group written: not given here.

T1: LGR7 (RXFP1) (human, UniProt Q9HBX9 1-757)
T1 sequence (looked up): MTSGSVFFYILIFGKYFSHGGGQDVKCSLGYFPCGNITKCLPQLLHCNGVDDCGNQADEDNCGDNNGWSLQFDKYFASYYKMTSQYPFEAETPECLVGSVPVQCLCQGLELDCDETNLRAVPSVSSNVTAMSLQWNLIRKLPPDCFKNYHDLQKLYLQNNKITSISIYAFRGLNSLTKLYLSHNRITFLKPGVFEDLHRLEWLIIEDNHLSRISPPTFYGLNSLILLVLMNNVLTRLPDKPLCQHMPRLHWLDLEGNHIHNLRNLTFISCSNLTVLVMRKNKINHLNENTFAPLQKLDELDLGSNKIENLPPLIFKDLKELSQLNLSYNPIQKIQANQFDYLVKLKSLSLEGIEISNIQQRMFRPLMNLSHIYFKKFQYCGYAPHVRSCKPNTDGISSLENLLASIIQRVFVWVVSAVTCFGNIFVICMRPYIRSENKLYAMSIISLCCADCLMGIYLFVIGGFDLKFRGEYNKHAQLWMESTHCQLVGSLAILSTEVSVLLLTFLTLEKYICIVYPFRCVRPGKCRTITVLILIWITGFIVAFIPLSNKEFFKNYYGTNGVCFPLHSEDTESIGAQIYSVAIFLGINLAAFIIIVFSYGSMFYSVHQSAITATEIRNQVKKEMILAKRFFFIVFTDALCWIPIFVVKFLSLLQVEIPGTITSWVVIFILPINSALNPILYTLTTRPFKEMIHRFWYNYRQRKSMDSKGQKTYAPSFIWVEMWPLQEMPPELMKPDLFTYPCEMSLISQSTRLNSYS


How the values were obtained:
[1] = molecular target: T2, LGR8 (RXFP2) (human, UniProt Q8WXD0 1-754); experiment: Competition binding against Europium-INSL3 on HEK-293T cells expressing LGR8
T2 construct: whole, on cells; also called RXFP2_HUMAN
T2 sequence (Q8WXD0 whole entry): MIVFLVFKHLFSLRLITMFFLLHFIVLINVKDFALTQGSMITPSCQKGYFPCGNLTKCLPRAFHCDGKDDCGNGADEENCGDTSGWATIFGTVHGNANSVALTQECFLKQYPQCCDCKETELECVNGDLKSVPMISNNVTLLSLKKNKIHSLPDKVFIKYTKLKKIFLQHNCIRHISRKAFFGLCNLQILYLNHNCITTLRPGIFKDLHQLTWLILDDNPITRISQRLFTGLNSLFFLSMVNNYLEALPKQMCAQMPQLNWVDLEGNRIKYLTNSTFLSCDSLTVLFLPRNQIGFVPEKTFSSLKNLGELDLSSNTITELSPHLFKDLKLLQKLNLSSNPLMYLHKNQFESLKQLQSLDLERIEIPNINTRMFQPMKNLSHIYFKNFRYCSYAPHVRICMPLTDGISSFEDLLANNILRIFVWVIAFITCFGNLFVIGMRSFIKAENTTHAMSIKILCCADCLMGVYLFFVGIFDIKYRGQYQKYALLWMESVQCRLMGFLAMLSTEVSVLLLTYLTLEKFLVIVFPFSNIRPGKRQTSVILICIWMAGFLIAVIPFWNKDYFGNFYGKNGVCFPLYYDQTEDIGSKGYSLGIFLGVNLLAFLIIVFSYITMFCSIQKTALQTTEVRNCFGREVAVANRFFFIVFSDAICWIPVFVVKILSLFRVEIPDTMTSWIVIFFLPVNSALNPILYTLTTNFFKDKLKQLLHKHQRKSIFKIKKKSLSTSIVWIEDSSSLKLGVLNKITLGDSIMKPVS

[2] = molecular target: T1, LGR7 (RXFP1); experiment: cell-based or functional assay
[3] = molecular target: T2, LGR8 (RXFP2); experiment: cell-based or functional assay

Binder	binding result [1]	EC50, cell impedance dose response (ACEA RT-CES), transfected CHO-K1 cells [2]	pCRE-beta-gal reporter after 5 uM forskolin, CHO-K1 cells, % of Forskolin activity [2]	pCRE-beta-gal reporter after 5 uM forskolin, CHO-K1 cells, % of Forskolin activity [3]
GQKGQVGPPGAAVRRAYAAFSV-NH2 (Synthetic peptide, the C-terminally amidated form of P59C13V; also called P59-Amide; P59 Amide) [Peptide P59C13V-Amide (amide)]	binds	–	–	–
GQKGQVGPPGAAVRRAYAAFSVGRRAYAAFSV (Free acid C-terminus) [Peptide P74C13V (free acid)]	binds	~300 nM	–	–
H2 Relaxin (ligand, disulfide I:10-I:15, I:11-II:11, I:24-II:23; not fully specified (some residues); ends not checked) chain 1: QLYSALANKCCHVGCTKRSLARFC chain 2: DSWMEEVIKLCGRELVRAQIAICGMSTWS	–	~100 nM	–	–
AYAAFSV-NH2 [Peptide P59-S-Amide (Amide)]	–	–	~2 fold of Forskolin	~2 fold of Forskolin
